Laboratory results as given in patent publication US20190010224A1 (Merck Sharp & Dohme, published 2019).

What was measured:
recombinant human IL-10 [1] = target: T1, recombinant human IL-10 (human, UniProt P22301 19-178); assay: binding ELISA on immobilized recombinant human IL-10; potency relative to reference material; sample stored at 5 C, 1 month
T1 construct: Immobilized on ELISA microtiter plates; also called interleukin-10
Method: (§1) In the ELISA assay, individual dose response curves were generated by using a serial dilution of anti-IL10 reference material or test samples binding to recombinant human IL-10 immobilized on ELISA microtiter plates. Then, by using a SoftMax Pro GxP four-parameter logistic curve fitting analysis, EC₅₀ values of reference material as a control and test samples were determined and a reference-to-sample EC₅₀ ratio was calculated as relative potency for a test sample. Final results were reported as potency relative to reference material.

recombinant human IL-10 [2] = target: T1, recombinant human IL-10; assay: binding ELISA on immobilized recombinant human IL-10; potency relative to reference material; sample stored at 5 C, 3 months
Method: as §1

recombinant human IL-10 [3] = target: T1, recombinant human IL-10; assay: binding ELISA on immobilized recombinant human IL-10; potency relative to reference material; sample stored at 5 C, 6 months
Method: as §1

recombinant human IL-10 [4] = target: T1, recombinant human IL-10; assay: binding ELISA on immobilized recombinant human IL-10; potency relative to reference material; sample stored at 5 C, initial time point
Method: as §1

T1 sequence (P22301 19-178 limits assumed): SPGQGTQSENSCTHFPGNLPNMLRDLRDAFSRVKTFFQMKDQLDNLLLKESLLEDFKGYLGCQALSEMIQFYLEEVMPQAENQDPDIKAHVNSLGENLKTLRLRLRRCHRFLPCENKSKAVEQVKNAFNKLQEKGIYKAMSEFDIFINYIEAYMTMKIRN

Potency Binding ELISA/Biological Potency, % (reference-to-sample EC50 ratio) (recombinant human IL-10 [1]): 115% | Potency Binding ELISA/Biological Potency, % (reference-to-sample EC50 ratio) (recombinant human IL-10 [2]): 99% | Potency Binding ELISA/Biological Potency, % (reference-to-sample EC50 ratio) (recombinant human IL-10 [3]): 105% | Potency Binding ELISA/Biological Potency, % (reference-to-sample EC50 ratio) (recombinant human IL-10 [4]): 101%
B1: anti-IL-10 hum12G8 (antibody, human IgG1, kappa, V domains shown)
VH: QVQLVESGGGVVQPGRSLRLSCAASGFTFSDYHMAWVRQAPGKGLEWVASITLDATYTYYRDSVRGRFTISRDNSKNTLYLQMNSLRAEDTAVYYCARHRGFSVWLDYWGQGTLVTVSS
VL: DIQMTQSPSSLSASVGDRVTITCKTSQNIFENLAWYQQKPGKAPKLLIYNASPLQAGVPSRFSGSGSGTDFTLTISSLQPEDFATYYCHQYYSGYTFGPGTKLELKR
notes: Humanized antibody expressed in CHO cells; It was tested as 50 mg/mL drug product in 10 mM histidine, 7% sucrose, 0.02% PS-80, pH 5.5; also called humanized 12G8; hu12G8
